Data reported in US6403637 (dated 2002).

Experiments:
[1] = biological target: T1, rat collagenase-3 receptor (170 kDa protein) of UMR 106-01 rat osteosarcoma cells and other rat cells (rat); assay: from the Scatchard analysis on UMR 106-01 cells
T1 construct: whole, on cells; on blotted cell membranes in the ligand blots; also called collagenase receptor; rat collagenase receptor

[2] = biological target: T2, low density lipoprotein receptor-related protein of rat cells (UMR 106-01, normal rat osteoblasts) (rat); assay: computer analysis of ^125I-mMMP-13 binding to UMR106-01 cells; lower affinity site
T2 construct: whole, on cells; On blotted membranes in ligand and Western blots; also called LRP; 600 kDa protein
T2 sequence (G3V928 20-3944): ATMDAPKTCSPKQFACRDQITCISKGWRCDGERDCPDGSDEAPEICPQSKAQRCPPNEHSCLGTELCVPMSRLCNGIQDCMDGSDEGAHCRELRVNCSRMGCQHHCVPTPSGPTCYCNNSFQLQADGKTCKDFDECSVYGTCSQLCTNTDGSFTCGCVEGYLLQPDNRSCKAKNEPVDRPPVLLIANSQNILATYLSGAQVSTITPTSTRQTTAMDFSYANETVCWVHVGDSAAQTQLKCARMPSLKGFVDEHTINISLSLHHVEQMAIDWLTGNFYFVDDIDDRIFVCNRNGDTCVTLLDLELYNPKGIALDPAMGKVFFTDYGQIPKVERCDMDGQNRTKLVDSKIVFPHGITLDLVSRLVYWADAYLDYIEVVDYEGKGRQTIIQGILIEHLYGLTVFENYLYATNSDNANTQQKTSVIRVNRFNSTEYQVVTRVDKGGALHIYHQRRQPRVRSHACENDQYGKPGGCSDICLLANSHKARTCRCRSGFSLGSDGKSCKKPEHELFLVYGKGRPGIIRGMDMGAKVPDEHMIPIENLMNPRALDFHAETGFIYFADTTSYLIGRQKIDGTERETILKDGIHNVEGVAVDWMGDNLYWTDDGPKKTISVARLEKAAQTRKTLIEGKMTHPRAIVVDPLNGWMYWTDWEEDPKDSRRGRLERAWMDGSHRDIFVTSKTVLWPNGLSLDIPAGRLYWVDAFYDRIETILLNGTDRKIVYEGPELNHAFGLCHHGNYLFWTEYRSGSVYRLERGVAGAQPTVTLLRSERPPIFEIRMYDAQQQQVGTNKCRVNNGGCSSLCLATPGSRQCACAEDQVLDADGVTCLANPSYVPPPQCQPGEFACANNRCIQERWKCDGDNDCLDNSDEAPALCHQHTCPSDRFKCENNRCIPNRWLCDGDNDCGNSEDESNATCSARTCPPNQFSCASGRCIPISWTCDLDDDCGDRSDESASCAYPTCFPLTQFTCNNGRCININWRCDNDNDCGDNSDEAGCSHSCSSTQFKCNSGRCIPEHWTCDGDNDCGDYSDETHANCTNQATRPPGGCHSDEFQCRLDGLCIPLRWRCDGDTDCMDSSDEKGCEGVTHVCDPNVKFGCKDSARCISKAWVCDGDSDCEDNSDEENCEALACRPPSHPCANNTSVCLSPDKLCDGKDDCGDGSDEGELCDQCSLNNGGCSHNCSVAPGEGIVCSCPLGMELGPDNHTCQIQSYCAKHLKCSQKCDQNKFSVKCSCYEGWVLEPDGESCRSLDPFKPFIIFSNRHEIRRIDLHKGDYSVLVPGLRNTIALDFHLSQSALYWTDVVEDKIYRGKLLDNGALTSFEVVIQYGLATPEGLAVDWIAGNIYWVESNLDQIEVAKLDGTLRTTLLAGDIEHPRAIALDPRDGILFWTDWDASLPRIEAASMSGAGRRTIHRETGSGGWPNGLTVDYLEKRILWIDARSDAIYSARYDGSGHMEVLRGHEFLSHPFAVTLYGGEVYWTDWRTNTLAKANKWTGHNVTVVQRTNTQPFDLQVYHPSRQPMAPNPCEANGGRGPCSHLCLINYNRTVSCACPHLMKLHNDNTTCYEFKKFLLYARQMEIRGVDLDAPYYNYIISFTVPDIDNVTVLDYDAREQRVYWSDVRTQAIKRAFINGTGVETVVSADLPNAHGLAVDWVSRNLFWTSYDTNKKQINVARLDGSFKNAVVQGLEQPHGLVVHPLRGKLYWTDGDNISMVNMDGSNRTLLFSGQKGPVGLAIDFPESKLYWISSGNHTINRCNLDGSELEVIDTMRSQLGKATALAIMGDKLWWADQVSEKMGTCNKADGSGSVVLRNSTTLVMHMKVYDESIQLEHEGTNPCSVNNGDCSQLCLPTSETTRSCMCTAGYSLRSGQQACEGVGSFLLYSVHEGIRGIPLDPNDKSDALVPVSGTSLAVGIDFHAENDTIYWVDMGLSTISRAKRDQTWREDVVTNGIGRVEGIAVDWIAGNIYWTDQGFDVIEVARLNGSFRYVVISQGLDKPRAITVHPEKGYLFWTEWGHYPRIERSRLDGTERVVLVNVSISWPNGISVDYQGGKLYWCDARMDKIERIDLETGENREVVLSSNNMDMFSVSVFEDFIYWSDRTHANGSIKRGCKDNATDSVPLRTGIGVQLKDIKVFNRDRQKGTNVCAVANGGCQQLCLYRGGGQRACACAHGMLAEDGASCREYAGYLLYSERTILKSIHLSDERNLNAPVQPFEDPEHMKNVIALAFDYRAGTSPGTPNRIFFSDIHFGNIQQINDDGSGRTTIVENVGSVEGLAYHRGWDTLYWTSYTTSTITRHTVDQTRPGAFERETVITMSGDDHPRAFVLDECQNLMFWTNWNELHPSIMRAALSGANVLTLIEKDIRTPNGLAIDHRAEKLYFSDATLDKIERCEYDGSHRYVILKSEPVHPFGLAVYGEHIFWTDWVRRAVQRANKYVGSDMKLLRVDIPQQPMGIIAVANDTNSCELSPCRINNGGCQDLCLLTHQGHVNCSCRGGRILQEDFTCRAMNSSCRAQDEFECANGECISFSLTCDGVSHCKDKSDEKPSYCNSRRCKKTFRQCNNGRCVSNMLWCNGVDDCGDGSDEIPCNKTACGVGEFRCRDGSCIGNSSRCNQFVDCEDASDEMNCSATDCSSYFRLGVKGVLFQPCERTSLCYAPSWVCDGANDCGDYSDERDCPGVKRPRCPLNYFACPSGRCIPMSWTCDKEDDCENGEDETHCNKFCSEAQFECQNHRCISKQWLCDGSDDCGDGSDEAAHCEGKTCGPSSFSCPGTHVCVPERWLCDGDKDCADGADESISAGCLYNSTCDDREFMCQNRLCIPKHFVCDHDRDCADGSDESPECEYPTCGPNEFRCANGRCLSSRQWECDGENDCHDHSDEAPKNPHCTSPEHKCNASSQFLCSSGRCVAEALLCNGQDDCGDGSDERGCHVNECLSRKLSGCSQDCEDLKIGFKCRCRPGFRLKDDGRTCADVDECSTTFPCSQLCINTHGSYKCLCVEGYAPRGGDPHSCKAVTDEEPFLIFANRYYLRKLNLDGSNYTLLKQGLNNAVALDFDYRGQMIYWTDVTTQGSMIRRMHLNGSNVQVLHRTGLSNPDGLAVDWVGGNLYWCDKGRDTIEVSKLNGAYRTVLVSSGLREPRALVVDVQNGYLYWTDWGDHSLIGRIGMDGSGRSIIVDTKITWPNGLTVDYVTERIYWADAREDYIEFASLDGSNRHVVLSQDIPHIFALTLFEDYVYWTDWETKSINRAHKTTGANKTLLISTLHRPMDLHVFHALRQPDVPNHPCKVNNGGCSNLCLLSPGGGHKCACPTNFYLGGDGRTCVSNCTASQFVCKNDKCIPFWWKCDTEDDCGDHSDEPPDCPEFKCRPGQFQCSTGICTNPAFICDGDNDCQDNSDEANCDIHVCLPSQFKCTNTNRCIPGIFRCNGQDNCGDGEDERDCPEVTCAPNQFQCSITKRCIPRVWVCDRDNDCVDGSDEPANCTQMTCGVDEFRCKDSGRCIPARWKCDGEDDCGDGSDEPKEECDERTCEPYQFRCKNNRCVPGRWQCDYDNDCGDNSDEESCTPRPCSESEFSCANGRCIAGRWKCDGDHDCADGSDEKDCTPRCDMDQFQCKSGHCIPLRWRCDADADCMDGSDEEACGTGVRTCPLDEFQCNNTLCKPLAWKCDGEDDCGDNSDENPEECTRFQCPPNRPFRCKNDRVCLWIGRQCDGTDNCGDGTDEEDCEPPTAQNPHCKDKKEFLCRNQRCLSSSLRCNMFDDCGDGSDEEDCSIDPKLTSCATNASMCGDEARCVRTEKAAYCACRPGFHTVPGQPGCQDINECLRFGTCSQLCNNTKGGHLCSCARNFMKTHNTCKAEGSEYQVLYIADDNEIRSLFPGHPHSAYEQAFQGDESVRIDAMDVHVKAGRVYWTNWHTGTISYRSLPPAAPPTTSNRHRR

[3] = biological target: T3, collagenase-3 receptor (170 kDa protein) of mouse embryo fibroblasts MEF-1 and MEF-2 (mouse, UniProt Q64449 31-1479); assay: competition with ^125I mouse collagenase-3 on MEF-2 (LRP null) cells; 200-, 400- and 800-fold excess of competitor
T3 construct: whole, on cells
T3 sequence (looked up): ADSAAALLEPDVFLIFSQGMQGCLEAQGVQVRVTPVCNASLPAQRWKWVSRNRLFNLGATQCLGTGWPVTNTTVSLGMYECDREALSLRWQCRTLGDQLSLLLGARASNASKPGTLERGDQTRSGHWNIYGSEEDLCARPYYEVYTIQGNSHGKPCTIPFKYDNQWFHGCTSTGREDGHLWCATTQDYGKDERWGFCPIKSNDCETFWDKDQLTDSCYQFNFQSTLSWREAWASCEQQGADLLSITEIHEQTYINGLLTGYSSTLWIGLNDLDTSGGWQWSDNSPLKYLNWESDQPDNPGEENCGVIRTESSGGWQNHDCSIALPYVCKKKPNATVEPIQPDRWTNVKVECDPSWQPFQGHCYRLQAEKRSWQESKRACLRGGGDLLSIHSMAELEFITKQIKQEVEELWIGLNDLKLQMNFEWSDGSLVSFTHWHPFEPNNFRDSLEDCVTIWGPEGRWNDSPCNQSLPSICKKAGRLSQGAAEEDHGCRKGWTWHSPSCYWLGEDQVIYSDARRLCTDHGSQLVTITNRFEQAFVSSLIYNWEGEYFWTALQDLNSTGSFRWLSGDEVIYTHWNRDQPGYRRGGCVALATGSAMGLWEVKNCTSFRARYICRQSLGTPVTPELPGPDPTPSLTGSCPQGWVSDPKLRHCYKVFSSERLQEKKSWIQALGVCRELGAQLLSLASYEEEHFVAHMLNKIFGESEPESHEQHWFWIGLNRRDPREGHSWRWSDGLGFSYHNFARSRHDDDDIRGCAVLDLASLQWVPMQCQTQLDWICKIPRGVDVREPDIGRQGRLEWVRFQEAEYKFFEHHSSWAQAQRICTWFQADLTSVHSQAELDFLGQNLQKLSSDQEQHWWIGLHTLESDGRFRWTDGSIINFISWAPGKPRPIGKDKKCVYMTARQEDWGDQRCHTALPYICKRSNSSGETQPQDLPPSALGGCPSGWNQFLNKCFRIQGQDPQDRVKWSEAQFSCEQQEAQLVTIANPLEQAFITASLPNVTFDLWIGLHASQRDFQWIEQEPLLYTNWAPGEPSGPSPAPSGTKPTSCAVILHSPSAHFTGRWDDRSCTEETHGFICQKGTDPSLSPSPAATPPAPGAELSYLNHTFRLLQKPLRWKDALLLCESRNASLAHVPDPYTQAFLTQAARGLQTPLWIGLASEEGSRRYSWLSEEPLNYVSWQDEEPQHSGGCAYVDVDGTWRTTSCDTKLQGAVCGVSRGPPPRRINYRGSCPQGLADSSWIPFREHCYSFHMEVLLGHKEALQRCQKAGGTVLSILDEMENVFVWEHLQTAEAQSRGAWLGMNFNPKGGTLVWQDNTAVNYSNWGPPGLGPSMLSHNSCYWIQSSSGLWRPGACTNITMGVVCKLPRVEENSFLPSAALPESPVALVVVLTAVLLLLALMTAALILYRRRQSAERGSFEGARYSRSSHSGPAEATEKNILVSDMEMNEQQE
Excerpt: This sequence corresponds to a published low density lipoprotein receptor-related protein consensus binding sequence.

[4] = biological target: T1, rat collagenase-3 receptor (170 kDa …); assay: Scatchard analysis of ^125I-mMMP-13 binding to UMR106-01 cells; high affinity site (ostensibly the collagenase-3 receptor)
[5] = biological target: T2, low density lipoprotein …; assay: Scatchard analysis of ^125I-mMMP-13 binding to UMR106-01 cells; lower affinity site (ostensibly the low density lipoprotein receptor-related protein)

B1: recombinant mouse collagenase-3 (mMMP-13, residues 1-472) (enzyme)
chain: not shown
modifications: ^125I-labeled where used as tracer
notes: not shown: N-terminal 6×His purification tag of pET30
- fold higher affinity compared to the low density lipoprotein receptor-related protein [1]: ~10 fold
- Kd [2]: 52.8 nM
- percent of mouse collagenase-3 binding [3]: 100%
- Kd [4]: 3.9 nM
- Kd [5]: 46.2 nM

B2: C-terminally truncated mouse collagenase-3, M(1-265) (enzyme)
chain: not shown
notes: range 1-265; also called MMP-13 (1-265); truncated MMP-13; not shown: N-terminal 6×His purification tag of pET30
- percent of mouse collagenase-3 binding [3]: 99.4%

B3: HM/M(141-472) chimeric collagenase (enzyme)
chain: not shown
notes: 62 kDa; not shown: N-terminal 6×His purification tag of pET30
- percent of mouse collagenase-3 binding [3]: 15.3%

B4: H/M(229-472) chimeric collagenase (enzyme)
chain: not shown
notes: as for B3
- percent of mouse collagenase-3 binding [3]: 0%
